Article PMC7969950

What follows are binders tested against endogenous LC3 (MCF10A cells), Q9GZQ8 (assay: co-immunoprecipitation (Flag-Trap), immunoblot). Settings: chain shown with the change; BafA1-treated MCF10A cells; parent: 1.0.

ratio to parent | Binder
0.29 | wild-type Flag-CTNNA1 (in MCF10A cells), P35221 Y419A; V422A; L897A; F900A (protein) MTAVHAGNINFKWDPKSLEIRTLAVERLLEPLVTQVTTLVNTNSKGPSNKKRGRSKKAHVLAASVEQATENFLEKGDKIAKESQFLKEELVAAVEDVRKQGDLMKAAAGEFADDPCSSVKRGNMVRAARALLSAVTRLLILADMADVYKLLVQLKVVEDGILKLRNAGNEQDLGIQYKALKPEVDKLNIMAAKRQQELKDVGHRDQMAAARGILQKNVPILYTASQACLQHPDVAAYKANRDLIYKQLQQAVTGISNAAQATASDDASQHQGGGGGELAYALNNFDKQIIVDPLSFSEERFRPSLEERLESIISGAALMADSSCTRDDRRERIVAECNAVRQALQDLLSEYMGNAGRKERSDALNSAIDKMTKKTRDLRRQLRKAVMDHVSDSFLETNVPLLVLIEAAKNGNEKEVKEAAQAFREHANKLIEVANLACSISNNEEGVKLVRMSASQLEALCPQVINAALALAAKPQSKLAQENMDLFKEQWEKQVRVLTDAVDDITSIDDFLAVSENHILEDVNKCVIALQEKDVDGLDRTAGAIRGRAARVIHVVTSEMDNYEPGVYTEKVLEATKLLSNTVMPRFTEQVEAAVEALSSDPAQPMDENEFIDASRLVYDGIRDIRKAVLMIRTPEELDDSDFETEDFDVRSRTSVQTEDDQLIAGQSARAIMAQLPQEQKAKIAEQVASFQEEKSKLDAEVSKWDDSGNDIIVLAKQMCMIMMEMTDFTRGKGPLKNTSDVISAAKKIAEAGSRMDKLGRTIADHCPDSACKQDLLAYLQRIALYCHQLNICSKVKAEVQNLGGELVVSGVDSAMSLIQAAKNLMNAVVQTVKASYVASTKYQKSQGMASLNLPAVSWKMKAPEKKPLVKREKQDETQTKIKRASQKKHVNPVQAASEAKAMDSI
0.22 | wild-type Flag-CTNNA1 (in MCF10A cells), P35221 L897A; F900A (protein) MTAVHAGNINFKWDPKSLEIRTLAVERLLEPLVTQVTTLVNTNSKGPSNKKRGRSKKAHVLAASVEQATENFLEKGDKIAKESQFLKEELVAAVEDVRKQGDLMKAAAGEFADDPCSSVKRGNMVRAARALLSAVTRLLILADMADVYKLLVQLKVVEDGILKLRNAGNEQDLGIQYKALKPEVDKLNIMAAKRQQELKDVGHRDQMAAARGILQKNVPILYTASQACLQHPDVAAYKANRDLIYKQLQQAVTGISNAAQATASDDASQHQGGGGGELAYALNNFDKQIIVDPLSFSEERFRPSLEERLESIISGAALMADSSCTRDDRRERIVAECNAVRQALQDLLSEYMGNAGRKERSDALNSAIDKMTKKTRDLRRQLRKAVMDHVSDSFLETNVPLLVLIEAAKNGNEKEVKEYAQVFREHANKLIEVANLACSISNNEEGVKLVRMSASQLEALCPQVINAALALAAKPQSKLAQENMDLFKEQWEKQVRVLTDAVDDITSIDDFLAVSENHILEDVNKCVIALQEKDVDGLDRTAGAIRGRAARVIHVVTSEMDNYEPGVYTEKVLEATKLLSNTVMPRFTEQVEAAVEALSSDPAQPMDENEFIDASRLVYDGIRDIRKAVLMIRTPEELDDSDFETEDFDVRSRTSVQTEDDQLIAGQSARAIMAQLPQEQKAKIAEQVASFQEEKSKLDAEVSKWDDSGNDIIVLAKQMCMIMMEMTDFTRGKGPLKNTSDVISAAKKIAEAGSRMDKLGRTIADHCPDSACKQDLLAYLQRIALYCHQLNICSKVKAEVQNLGGELVVSGVDSAMSLIQAAKNLMNAVVQTVKASYVASTKYQKSQGMASLNLPAVSWKMKAPEKKPLVKREKQDETQTKIKRASQKKHVNPVQAASEAKAMDSI
0.23 | wild-type Flag-CTNNA1 (in MCF10A cells), P35221 Y419A; V422A (protein) MTAVHAGNINFKWDPKSLEIRTLAVERLLEPLVTQVTTLVNTNSKGPSNKKRGRSKKAHVLAASVEQATENFLEKGDKIAKESQFLKEELVAAVEDVRKQGDLMKAAAGEFADDPCSSVKRGNMVRAARALLSAVTRLLILADMADVYKLLVQLKVVEDGILKLRNAGNEQDLGIQYKALKPEVDKLNIMAAKRQQELKDVGHRDQMAAARGILQKNVPILYTASQACLQHPDVAAYKANRDLIYKQLQQAVTGISNAAQATASDDASQHQGGGGGELAYALNNFDKQIIVDPLSFSEERFRPSLEERLESIISGAALMADSSCTRDDRRERIVAECNAVRQALQDLLSEYMGNAGRKERSDALNSAIDKMTKKTRDLRRQLRKAVMDHVSDSFLETNVPLLVLIEAAKNGNEKEVKEAAQAFREHANKLIEVANLACSISNNEEGVKLVRMSASQLEALCPQVINAALALAAKPQSKLAQENMDLFKEQWEKQVRVLTDAVDDITSIDDFLAVSENHILEDVNKCVIALQEKDVDGLDRTAGAIRGRAARVIHVVTSEMDNYEPGVYTEKVLEATKLLSNTVMPRFTEQVEAAVEALSSDPAQPMDENEFIDASRLVYDGIRDIRKAVLMIRTPEELDDSDFETEDFDVRSRTSVQTEDDQLIAGQSARAIMAQLPQEQKAKIAEQVASFQEEKSKLDAEVSKWDDSGNDIIVLAKQMCMIMMEMTDFTRGKGPLKNTSDVISAAKKIAEAGSRMDKLGRTIADHCPDSACKQDLLAYLQRIALYCHQLNICSKVKAEVQNLGGELVVSGVDSAMSLIQAAKNLMNAVVQTVKASYVASTKYQKSQGMASLNLPAVSWKMKAPEKKPLVKREKQDETQTKIKRASQKKHVNPVQALSEFKAMDSI
